# Test results reported in patent US20260062491A1.
# Residue numbers refer to the chain shown, from its start.
# B1: EPC10 (ligand, not shown: small tags and cut ends)
# chain: GDQNPQIAAHVISEASSTTTSVLQWAEKGYYTMSNNLVTLENGKQLTVKRQGLYYIYAQVTFCSNREASSQAPFIASLCLKSPGRFERILLRAANTHSSAKHCGQQSIHLGGVFELQPGASVFVNVTDPSQVSHGTGFTSFGLFKL
# B2: EPC7 (ligand, not shown: small tags and cut ends)
# chain: B1 chain with T18K, S70G, H102R
# Columns and labels:
# [1] = target: CD40 on peripheral blood B cells (CD3- CD19+ cells of PBMC) (UniProt P25942); experiment: flow cytometry: PBMC stained with the secondary anti-His tag antibody alone (negative control); gate lymphoid, single, viable, CD3- CD19+ cells [panel B]
# [2] = target: CD40 on peripheral blood B cells (CD3- CD19+ cells of PBMC) (UniProt P25942); experiment: flow cytometry: PBMC incubated with 0.043 uM His-tagged CD40L construct, secondary anti-His tag antibody; gate lymphoid, single, viable, CD3- CD19+ cells [panel B]
Molecule,MFI [1],MFI [2]
Control (antibody),99,
WT (ligand),,1300
B1,,1180
B2,,1360
